From article PMC9092470, “Understanding p300-transcription factor interactions using sequence variation and hybridization†” (RSC Chemical Biology, 2022)
Several values for one entry are separate records, joined by “and”; a condition that tells them apart may be missing. Identical values can stand only once.

How the values were obtained:
[1] = target: T1, p300 (CH1 domain, residues 330–420) (Homo sapiens, UniProt Q09472); assay: ITC of expressed HIF-1α, CITED2 and CITIF peptides binding to p300; conditions: ITC, expressed peptides, conditions as Fig. S6 (40 mM sodium phosphate, pH 7.5, 100 mM NaCl, 1 mM DTT, 35°C)
T1 construct: GST (N, cleaved yes); made in house; host or cells: E. coli BL21 pLysS (pGEX-4T1-p300)
T1 sequence (Q09472 330-420): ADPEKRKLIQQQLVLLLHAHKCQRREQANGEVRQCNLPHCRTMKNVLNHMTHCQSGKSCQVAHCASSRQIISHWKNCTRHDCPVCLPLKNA
Protocol: We hypothesized that it would be possible to enhance the affinity of HIF-1α for p300 by hybridising key regions of both CITED2 and HIF-1α (see later). We first measured the affinity of the parent peptides. A particular difficulty in comparing these peptide sequences is the different length used in different studies.[28,33,35,36] […]
data and fitted thermogram (lower) (40 mM sodium phosphate, pH 7.5 100 mM NaCl, 1 mM DTT buffer using 5 µM protein in the cell and 60 µM ligand in the syringe at 35°C); (b) Thermodynamic signatures for each interaction. […]
(§1) Isothermal titration calorimetry
(§2) Prior to ITC measurement p300 CH1 was dialysed or run on S75 column in the buffer used for titration, and the same buffer was used to dissolve the pure peptides. Experiments with […]
(§3) MicroCal iTC200 instrument with 10 µM protein in the cell and 100 µM ligand in the syringe at 37°C, using 2 µl injections and 120 or 180 s spacing between injections. Experiments with the […]
(§4) instrument using 3-5 µM protein in the cell and 40-60 µM ligand in the syringe at 35°C, using 5 µl injections and 180 s spacing between injections, for 40 injections. Titrations were performed in 40 mM Na-phosphate, pH 7.5 100 mM NaCl, 1 mM DTT buffer except for GFP-HIF-1α and variants for which 25 mM Tris-HCl, 150 mM NaCl, 1mM DTT, pH 7.4 buffer was used. Data were analysed using NITPIC3 and fitted using SEDPHAT4 to a single binding site model (fixed 1:1 stoichiometry), with baseline and incompetent protein fraction as adjustable parameters. 68 % confidence intervals for the fitted values were determined using the automatic confidence interval search implemented in SEDPHAT. Figures were prepared using […]

[2] = target: T2, CITED2216-259 /p300 complex (Homo sapiens, UniProt Q09472); assay: Competition ITC: HIF-1α776-826 titrated to preformed CITED2216-259/p300 complex; type: binding; conditions: titrated to CITED2216-259/p300 complex
T2 construct: GST (N, cleaved yes); made in house; host or cells: p300: E. coli BL21 pLysS (pGEX-4T1-p300); CITED2 peptide: chemical synthesis
T2 sequence (Q09472 330-420, one chain of several): as the sequence (Q09472 330-420) above
Protocol: Figure S7Apparent KD fits for the competition ITC experiment using a competition interaction model. p300/ligand complexes were prepared by titrating the appropriate ligand first to p300 in the cell using 3-5 µM protein concentration, the titration stopped when it reached close to […]
(Table S5) Then it was titrated with the competitor ligand using 30-60 µM concentration in the syringe, 5 or 10 uL injections with 180-240 s spacing. Background titrations were performed without p300 in the cell and subtracted from the measurements. Apparent KD,app and ΔH app values data were fitted to a competition model (Fig. S17) in SEDPHAT. Error bars represent the estimated integration errors.
(1 picture or pasted object on this page, not shown here)
Table S1 Apparent KD values and thermodynamic parameters for competition ITC experiments derived from fitting the data to a competition model depicted in Fig. S17. confidence intervals of the binding parameters are shown in brackets. […]
as §1
Prior to ITC measurement p300 CH1 was dialysed or run on S75 column in the buffer used for titration, and the same buffer was used to dissolve the pure peptides. […]
37°C, using 2 µl injections and 120 or 180 s spacing between injections. Experiments with the […]
as §4
Competition ITC measurements
Competition ITC measurements were performed in Microcal VP ITC. […]

[3] = target: T1, p300 (CH1 domain, residues 330–420); assay: ITC of chemically synthesized HIF-1α, CITED2 and CITIF peptides binding to p300; conditions: ITC, 35 °C, 40 mM sodium phosphate, pH 7.5, 100 mM NaCl, 1 mM DTT, 5 μM protein in cell, 60 μM ligand in syringe
Protocol: Raw ITC (upper) data and fitted thermogram (lower) (40 mM sodium phosphate, pH 7.5 100 mM NaCl, 1 mM DTT buffer using 5 μM protein in the cell and 60 μM ligand in the syringe at 35 °C) error bars represent the estimated integration errors; (b) Thermodynamic signatures for each interaction.
Figure S8 (a) Sequences of the truncated CITED2 peptides and isothermal titration […]
µM peptide in the syringe. All measurements were carried out 40 mM sodium phosphate, pH 7.5 100 mM NaCl, 1 mM DTT buffer at 35°C. Error bars represent the estimated integration […]
Table S2 Thermodynamic parameters for shortened CITED2 sequences. 68% confidence intervals for the fitting are shown in brackets. Data fitted to a single binding site model, fixed 1:1 stoichiometry with incompetent protein fraction as an adjustable parameter. […]
as §1, §2, §3, §4

p300 = target: T3, p300 (Homo sapiens, UniProt Q09472); assay: Global fitting of ITC titrations with ternary complex model: binary binding parameters
T3 construct: GST (N, cleaved yes); made in house; host or cells: E. coli BL21 pLysS (pGEX-4T1-p300)
T3 sequence (Q09472 330-420): as above
Source text: To gain more insight into the mechanism by which the different CITED2 sequences displace HIF-1α from the preformed HIF-1α/p300 complex, we performed global fitting[69] of the competition data using a model that permits ternary complex formation depicted in Fig. 5e (fitted thermograms are shown on Fig. S9 (ESI ^†), for detailed analysis see Fig. S18 and ESI ^† eqn (S5)–(S20)). The reported cooperativity constant (α), the derived ΔΔG and ΔΔH represent the additional Gibbs energy and additional contribution to the enthalpy due to cooperative interactions and indicate whether the ternary complex formation is favourable (negative ΔΔG) or unfavourable (positive ΔΔG).[70,71]
Thus the enthalpy change for equilibrium III. (CITED2 binding to HIF-1 α /p300 complex can
∆𝐻𝑇,𝐶𝐼𝑇 = ∆𝐻𝐶𝐼𝑇 + ∆∆𝐻 𝐸𝑞. 19.
And the enthalpy for equilibrium IV. HIF-1 α binding to CITED2/p300 complex can be given by:
∆𝐻𝑇,𝐻𝐼𝐹 = ∆𝐻𝐻𝐼𝐹 + ∆∆𝐻 𝐸𝑞. 20.
Fitting in SEDPHAT was parametrized as follows: HIF-1α776-826 titrated to p300 (B to
ΔH B, logK[AB]C/KAC and ΔΔH (corresponding to KHIF, ΔH HIF, KCITED, ΔH CITED, cooperativity
constant α and ΔΔH) were fitted using A+B+C <-> AB + C <-> AC + B <-> ABC triple complex
model. Incompetent fraction for p300 and baseline was fitted locally for each experiment. 68

p300 CH1 (Homo sapiens) = p300 CH1 (Homo sapiens) (UniProt Q09472); assay: anisotropy; conditions: cited from earlier work
[4] = target: T4, p300 CH1 domain (residues 330–420) (UniProt Q09472 330-420); assay: ITC; expressed peptides (GFP tag cleaved) titrated to p300; conditions in Fig. S6 (ESI); fixed 1:1 stoichiometry; conditions: both partners purified
T4 construct: p300 CH1 domain, residues 330–420; The cleavage of GST is said for the anisotropy control; also called p300 with the GST tag cleaved; source: recombinantly expressed as a fusion protein with GST, GST tag cleaved
T4 sequence (Q09472 330-420): as above

[5] = target: T4, p300 CH1 domain (residues 330–420); assay: ITC; peptide in the syringe, p300 in the cell (Fig. 4: 5 μM protein, 60 μM ligand); 40 mM sodium phosphate, pH 7.5, 100 mM NaCl, 1 mM DTT, 35 °C; single-site model, fixed 1:1 stoichiometry; conditions: both partners purified
[6] = target: T5, p300 CH1 domain (residues 330-420), GST removed with thrombin (human, UniProt Q09472 330-420); assay: ITC; global fit in SEDPHAT of three titrations (HIF-1α776-826 to p300, CITED2 peptide to p300, CITED2 peptide to preformed p300/HIF-1α776-826) to a model with a ternary CITED2-HIF-1α-p300 complex; 40 mM sodium phosphate, pH 7.5, 100 mM NaCl, 1 mM DTT; 35 °C; conditions: both partners purified
T5 construct: human p300, CH1 domain (zinc finger, TAZ type 1), residues 330-420; Thrombin-cleaved construct (expected m/z 10603.30), used on the Microcal VP ITC with synthetic partners (D1:p17); source: E. coli BL21 pLysS (pGEX-4T-1), glutathione beads, on-column thrombin cleavage, SEC
T5 sequence (Q09472 330-420): as above

[7] = target: T4, p300 CH1 domain (residues 330–420); assay: ITC; competition: CITED2 peptides titrated into the preformed p300/HIF-1α 776–826 complex (1.2–1.6 equivalents of HIF-1α); 40 mM sodium phosphate, pH 7.5, 100 mM NaCl, 1 mM DTT, 35 °C; competitive binding model; apparent; conditions: both partners purified
[8] = target: T4, p300 CH1 domain (residues 330–420); assay: ITC; peptide in the syringe, p300 in the cell (Fig. 4: 5 μM protein, 60 μM ligand); 40 mM sodium phosphate, pH 7.5, 100 mM NaCl, 1 mM DTT, 35 °C; single-site model, fixed 1:1 stoichiometry; conditions: both partners purified; remark: listed apart in the source
[9] = 68% confidence interval in brackets
[10] = global fit 1 (CITED224-259 and HIF776-826 titrations)
[11] = global fit 2 (CITED216-269 and HIF776-826 titrations)
[12] = global fit 3 (CITED2216-248 and HIF776-826 titrations)

Molecule: CC[C@H](C)[C@H](NC(=O)[C@@H]1CCCN1C(=O)[C@H](C)NC(=O)[C@H](CC(N)=O)NC(=O)[C@@H](NC(=O)[C@H](CCC(=O)O)NC(=O)[C@H](CS)NC(=O)[C@H](CC(=O)O)NC(=O)[C@H](Cc1ccc(O)cc1)NC(=O)[C@H](CO)NC(=O)[C@@H](NC(=O)[C@H](CC(C)C)NC(=O)[C@H](CCC(N)=O)NC(=O)[C@@H]1CCCN1C(=O)[C@H](CC(C)C)NC(=O)CNC(=O)[C@H](CO)NC(=O)[C@H](CCC(=O)O)NC(=O)[C@H](CC(=O)O)NC(=O)[C@H](CCSC)NC(=O)[C@H](CO)NC(=O)[C@H](CCC(N)=O)NC(=O)CNC(=O)[C@H](CC(C)C)NC(=O)[C@H](CC(C)C)NC(=O)[C@H](CCCNC(=N)N)NC(=O)[C@H](CS)NC(=O)[C@H](C)NC(=O)[C@H](CC(C)C)NC(=O)[C@H](CC(=O)O)NC(=O)[C@H](CO)NC(=O)[C@H](CO)NC(=O)CNC(=O)[C@@H]1CCCN1C(=O)CN)[C@@H](C)O)C(C)C)C(=O)N[C@@H](CCC(N)=O)C(=O)NCC(=O)N[C@@H](CO)C(=O)N[C@@H](CCCNC(=N)N)C(=O)N[C@@H](CC(N)=O)C(=O)N[C@@H](CC(C)C)C(=O)N[C@@H](CC(C)C)C(=O)N[C@@H](CCC(N)=O)C(=O)NCC(=O)N[C@@H](CCC(=O)O)C(=O)N[C@@H](CCC(=O)O)C(=O)N[C@@H](CC(C)C)C(=O)N[C@@H](CC(C)C)C(=O)N[C@@H](CCCNC(=N)N)C(=O)N[C@@H](C)C(=O)N[C@@H](CC(C)C)C(=O)N[C@@H](CC(=O)O)C(=O)N[C@@H](CCC(N)=O)C(=O)N[C@H](C(=O)N[C@@H](CC(N)=O)C(=O)O)C(C)C [HIF-1α776–826]
- ΔS, expressed peptides [1]: −39.2 cal mol^−1 K^−1
- ΔH, expressed peptides [1, 9]: -22.2 kcal/mol
- Kd ([2]; fixed KD = 26.3 nM for CITED2, treat with caution, small heat change, read-out: KD,app HIF-1α): 695 nM
- ΔHapp, HIF-1α ([2]; treat with caution): -26.37 kcal/mol
- ΔSapp, HIF-1α ([2]; treat with caution): -57.4 cal/mol/K
- ΔS, synthetic peptides [3]: −41 cal mol^−1 K^−1
- ΔH, synthetic peptides [3, 9]: -22.9 kcal/mol
- ΔH (p300; [10]): -22.7 kcal/mol
- ΔS (p300; [10]): -40.3 cal mol-1 K-1
- ΔH (p300; [11]): -22.9 kcal/mol
- ΔS (p300; [11]): -41.1 cal mol-1 K-1
- ΔH (p300; [12]): -27.8 kcal/mol
- ΔS (p300; [12]): -57.4 cal mol-1 K-1

Molecule: CITED2 216-269 (from UniProt Q99967)
- Kd (p300 CH1 (Homo sapiens)): 10 nM

Molecule: HIF-1α 776-826 (from UniProt Q16665)
- Kd (p300 CH1 (Homo sapiens)): 10 nM

B1: CITIF, HIF-1α-CITED2 hybrid sequence, expressed peptide (GFP tag cleaved) (peptide)
chain: GPGSDEEVLMSLVIEMGLDRIKELPQLTSYDCEVNAPIQGSRNLLQGEELLRALDQVN
- dH [4]: -18.3 kcal/mol

Molecule: DEEVLMSLVIEMGLDRIKELPELWL (peptide, UniProt Q99967 224-248, looked up) [CITED2 224–248 (truncated CITED2)]
- Kd [5]: 10400 nM

Molecule: Ac-DEEVLMSLVIEMGLDRIKELPELWLGQNEFDFMTDF-NH2 (source: synthetic peptide) [CITED2224-259 (synthetic)]
- Kd [6]: 11.6 nM

B2: HIF-1α 786–826, expressed peptide (GFP tag cleaved) (peptide)
peptide: GPGSSMDESGLPQLTSYDCEVNAPIQGSRNLLQGEELLRALDQVN
notes: four residues (Gly-Pro-Gly-Ser) remaining from the PreScission protease cleavage; Free N-terminus; source: expressed as GFP fusion protein, tag cleaved with PreScission protease
- dH [4]: -32.7 kcal/mol

B3: HIF-1α776-826 (synthetic) (peptide)
peptide: Ac-SDLACRLLGQSMDESGLPQLTSYDCEVNAPIQGSRNLLQGEELLRALDQVN-NH2
modifications: cysteine pairing not given here
notes: source: synthetic peptide
- Kd [6]: 67 nM and 48.8 nM and 52.3 nM

B4: CITED2216-269 (synthetic) (peptide)
peptide: Ac-NVIDTDFIDEEVLMSLVIEMGLDRIKELPELWLGQNEFDFMTDFVCKQQPSRVS-NH2
notes: source: synthetic peptide
- Kd [6]: 26.9 nM

B5: CITED2 224–259, chemically synthesized peptide (peptide, UniProt Q99967 224-259, looked up)
peptide: Ac-DEEVLMSLVIEMGLDRIKELPELWLGQNEFDFMTDF-NH2
notes: source: synthetic peptide (chemical synthesis, see ESI)
- KD,app (competition against the preformed p300/HIF-1α 776–826 complex) [7]: 12.2 nM
- Kd [8]: 9.1 nM
- dH [8]: -12.4 kcal/mol

B6: HIF-1α 776–826, expressed peptide (GFP tag cleaved) (peptide)
peptide: GPGSSDLACRLLGQSMDESGLPQLTSYDCEVNAPIQGSRNLLQGEELLRALDQVN
notes: as for B2
- Kd [4]: 82.4 nM
- dH [4]: -22.2 kcal/mol

B7: CITED2 216–269, chemically synthesized peptide (peptide, UniProt Q99967 216-269, looked up)
peptide: Ac-NVIDTDFIDEEVLMSLVIEMGLDRIKELPELWLGQNEFDFMTDFVCKQQPSRVS-NH2
notes: as for B5
- KD,app (competition against the preformed p300/HIF-1α 776–826 complex) [7]: 1.1 nM
- Kd [8]: 26.3 nM
- dH [8]: -13.2 kcal/mol
